Experiment: soluble on expression in E. coli; label from the status in PepcDB or PDB records

For “MGSDKIHHHHHHMDINLRFFSRLNPWLNSLFTSKATLKTEIDEAQQGQMSLKTIANQYPLQARRGPITQVMLYQSLYASDDFVGREKQLNQITDVINQWRNHHGEISAIVSPAGSGGSSFLGQLPPLLQTIIADDAKKAPMPDVKPLPSKWLLMSFYQAPLGANGAIAHVCYCFGITPPNTITETIAAINQQPPQLIMIDDMHKLMLRMMGNNQALVTFATIVMETRKHHCWIMGCEIFAWQRLSAQYQIHHFIKHVFQLDYFSETELATIQTKHLLDLGLISNDVMAKETTTTPPNNTNKSTKEQTEQANIEQVDIVNPYKDQLKQLYTISQGHPKLASLLLQYSLAHQVDIGSDNSSNSRSNNGIDICRINSSVLQQCQDNDLFSVAEIYVHGGLRVSQHAHIFAITIEQSSLQLEYLARQGLIIAQYSQQDFAEHFYFITPTLSKIIANHLVNNNKLFN”, the “soluble on expression in E. coli” value was “not soluble”.
For “MGSDKIHHHHHHMLQGKVSVIVPAYNAARLLERCVRSITGQTYPALEVIVVDDGSKDDTGKIADQLAAEDSRIRVVHKTNGGVSAARNDALKLVEGEWITFVDSDDYLEPDFLRSLLDGEVADLVIGGYHTVGANEIPSANYPTDTAHSPEAIKRALEARLTDMTFLCPWGKLFRTSLVRSLRLIFNTEMKVGEDVVFVWSYLAHCSSLAFKQGQGYDYYTEPGADFKYALDETVSLQTIERILGVLDGLKRNFGMDTEHARCHVLNYYIWLFKLYVNRNYLLRDLARMKNFFYYPLILDYYKTYRRTSKDKLLVYLLLKLRLSGVLYLMIKLYY”, the “soluble on expression in E. coli” value was “not soluble”.
With “ILVKNLPQDSNCQEVHDLLKDYDLKYCYVDRNKRTAFVTLLNGEQAQNAIQMFHQYSFRGKDLIVQLQPTDALLC” the “soluble on expression in E. coli” value was “soluble”.
For “MGSDKIHHHHHHMKIDFHTHIYPDHVAVRTIAAVRQRAGIEAHTDGTLKGLKRSMTAAGIDISVVAAVATRPEQVSSIHCWLGGIRQPGIETMATTHPSNPLKSEQIKSLKRRGFKGFKLHPDYQHFFVDDFRMYPFYEAAAAEGMFILFHAGMDRGLPYPVHATPKRLAAVHEAVPRLCMIAAHLGGEEAYEETVAHLLGKDLYLDTSFVLRKMPRLFLERIFREHPPDKLLFASDSPWTDQREELNFLLQLPFLSVQDQEKICFSNAARLLGREA”, the “soluble on expression in E. coli” value was “not soluble”.
For “MAHHHHHHMRILHKLGKNVFQTARRSFSLVTKQAHDFTAQGLNKNNEIINVQLSSYIGKKYCCLLFYPLNYTFVCPTEIIEFNKHVKSFEEKNVELLGISVDSVYSHLAWKNMPIEKGGIGNVNFTLVSDLNKEISKMYNVLYENSFALRGLFIIDLQGKVRHQTVNDLPLGRSVDEVLRTIDSIIHVDKTGDVCPINWKKGAKSFQPTNDSLLNYLNTEVKKE”, the “soluble on expression in E. coli” value was “soluble”.
With “MKRLRSKMTTEELAECLGVARQTVNRWIREQHWKTEKFPGVKGGRARLIHIDASVREFILNIPAFRKLPAFYQAEEAFAEYANAAHSHAYRQIIDAVENMSAQEQEKLALFLSREGIRGFLTRLGINEAD” the “soluble on expression in E. coli” value was “not soluble”.
In the case of “METKYLRINPADNVAVAIVNLPAGEHLSVDGIEITLNEDIPAGHKFALKDFAEGENVIKYGYPIGHARMAKKQGDWMNETNIKTNLAGLLEYTYHPTQVTLDIPHKNLTFKGYRRKNGDVGVRNEIWIIPTVGCVNGIIGQLAEGLRRETEGKGVDAIVAFPHNYGCSQLGDDHENTKKILRDMVLHPNAGAVLIVGLGCENNQPDVFREFLGDYDQDRVKFMVTQKVGDEYEEGMDILRDLYAKASKDERTEVPLSELRVGLKCGGSDGFSGITANPLLGMFSDFLIAQGGTSVLTEVPEMFGAETILMNRCENKDLFEQTVHLINDFKEYFLSHGEPVGENPSPGNKAGGISTLEEKALGCTQKCGKSYVSGVMPYGERLQKKGLNLLSAPGNDLVAATTLAASGCHMVLFTTGRGTPFGTFVPTMKISTNSTLAKNKPGWIDFNAGVIVENEPMEKTCERFIEYVIKVASGEFVNNEKKGYREIAIFKTGVTL”, the “soluble on expression in E. coli” value is reported as “not soluble”.
In the case of “ADKNPGSENMTNTIGPHDRGGSSPIYNILNSYLTAYNGSHHLYDRMSFLCLSSQNTLNGACPSSDAPGTATIDGETNITLQFTEKRSLIKRELQIKGYKQFLFKNANCPSKLALNSSHFQCNREQASGATLSLYIPAGELNKLPFGGVWNAVLKLNVKRRYDTTYGTYTINITVNLTDKGNIQIWLPQFKSNARVDLNLRPTGGGTYIGRNSVDMCFYDGYSTNSSSLEIRFQDDNSKSDGKFYLKKINDDSKELVYTLSLLLAGKNLTPTNGQALNINTASLETNWNRITAVTMPEISVPVLCWPGRLQLDAKVKNPEAGQYMGNIKITFTPSSQTLDNKQVEKNITVTASVDPVIDLLQADGNALPSAVKLAYSPASKTFESYRVMTQVHTNDATKKVIVKLADTPQLTDVLNSTVQMPISVSWGGQVLSTTAKEFEAAALGYSASGVNGVSSSQELVISAAPSTAGTAPTAGNYSGVVSLVMTLGSDNKQVEKNITVTASVDPVIDLLLEHHHHHH”, the “soluble on expression in E. coli” value is reported as “soluble”.
With “GPGSMTDFYSLIPSAPKGRFDGIERAHTAEDVKRLRGSVEIKYSLAEMGANRLWKLIHEEDFVNALGALSGNQAMQMVRAGLKAIYLSGWQVAADANTASAMYPDQSLYPANAGPELAKRINRTLQRADQIETAEGKGLSVDTWFAPIVADAEAGFGDPLDAFEIMKAYIEAGAAGVHFEDQLASEKKCGHLGGKVLIPTAAHIRNLNAARLAADVMGTPTLIVARTDAEAAKLLTSDIDERDQPFVDYEAGRTAEGFYQVKNGIEPCIARAIAYAPYCDLIWMETSKPDLAQARRFAEAVHKAHPGKLLAYNCSPSFNWKKNLDDATIAKFQRELGAMGYKFQFITLAGFHQLNYGMFELARGYKDRQMAAYSELQQAEFAAEADGYTATKHQREVGTGYFDAVSLAITGGQSSTTAMKESTETAQFKPAAE” the “soluble on expression in E. coli” value was “soluble”.
With “MGSSHHHHHHSSGLVPRGSHMSGALKENSGKPSEVEYTHFKDLQALEMERGRLYETIVVTWDDSMVGNAAPIGVLCTGDDTVTLYLYQGTRTVENVLNNGRFTVNVTLDPLIFTDSTLGDLEEDMFSHYRDFLHLRGADAFFTAEVVSVKKLVKRDRFGESELHVVKARAGDVMRAESFRMALNRGIYAVIESLIAYTRAEFSDPLVLRERIAEMNRVARKVGGPREKEAMRRIIQALESKIS” the “soluble on expression in E. coli” value was “soluble”.
For “MSLSEPILFVDDEQHVLNALQRVFSESGLETVFTRSPIEALELCRSKKFAVIVSDNMMPEMKGIELLTRIKEESPETVKCLLTAHADLDTALQAINSGEVFRFIVKPWRNEELYQAVSEGVARFREGHHHHHTDPNSSSVDKLAAALEHHHHHH”, the “soluble on expression in E. coli” value was “soluble”.
In the case of “MGHHHHHHGGHMSLSNEVERVYPRLLDFVRKKYVSKNLLRVTLTGEDLIGFPEDQNGSHIKVFFPNQASGILQLPIREGDKVIWPEHKPVPRAYTVRQYRAQSNELDIDFVVHGEGTPGGGWALKAQTGSQLGLIGPGGPDPLIEPADWHIMAGDLSAVPAISAILEKMPSQAKGYVFLEVDDIEDKHDISHPEQMVIKWLVRDPNQAQPVLAMAIEQLPVPQGAESLSAFVAGENESVIACRKILRNEYRIARDKIYAIPYWKRGKNEEAYHEERHVVMDEEFEGGS”, the “soluble on expression in E. coli” value is reported as “soluble”.
In the case of “MDVNVNIDTNAEKQAISPYIYGTNQDFSNAKVTARRIGGNRSTGYNWENNDSNAGTDWKNESDNYWLTLYDVPKEKYNEPASVYTAFHDKSLAMGVPYSLVTLQAGGYVAADQSGPLANTDVAPSSKWKKVEFNKNGPLSLTPDTTDGSVYMDEFVNYLVNKYGSASGSKGIKGYSLDNEPSLWPSTHPLIHPDKTKCSEVLDKDTQLAQVVKKIDPAAETFGPALFGFSAFNDFNSSPDWSSVKGNYQWFIDYYLDNMKKNSDAAGKRLLDALDLHWYPEAKGGGQRVTTSDTSNVDCNKARMQAPRSLWDSTYTEDSWIGQWCKWGLPLIPKVKSSIDKYYPGTKLSFSEYNYGGEDHISGGIAQADALGVFGKYGVYFATYWECNSDKNNYVQSAFNLYNNYDGNNSKYGDTDVKCDTSDINNSSTYASVTSNDGNKMDIIVMNKNYTDSINFNFNVSSNKNYTSGQVWGFDSNSSNITKRDDVSSISGNKFTYKIPALTAVHIVLLEHHHHHH”, the “soluble on expression in E. coli” value is reported as “soluble”.
With “MLQFYRNLGKSGLRVSCLGLGTWVTFGGQITDEMAEHLMTLAYDNGINLFDTAEVYAAGKAEVVLGNIIKKKGWRRSSLVITTKIFWGGKAETERGLSRKHIIEGLKASLERLQLEYVDVVFANRPDPNTPMEETVRAMTHVINQGMAMYWGTSRWSSMEIMEAYSVARQFNLIPPICEQAEYHMFQREKVEVQLPELFHKIGVGAMTWSPLACGIVSGKYDSGIPPYSRASLKGYQWLKDKILSEEGRRQQAKLKELQAIAERLGCTLPQLAIAWCLRNEGVSSVLLGASNAEQLMENIGAIQVLPKLSSSIVHEIDSILGNKPYS” the “soluble on expression in E. coli” value was “soluble”.
For “MGSDKIHHHHHHMIRYPVLKEGATIGVTAPSSGVPKDLHDLVKAACERMEERGFRVVCGETVWTQEKAKSSEAKKRATELQAMMEDDAIDLMIPPWGGQLLIEVLQFLDFEQWEPKWILGYSDTSLLLLAITLNTGIATAHGTNLVDLRGEYSDDTTAMWQPVLSTKIGDSIVQHSSKKYQKEWDFERPTPCVFHLTEKTKWQGVPKQTLSINGRLLGGCIDVIRHLIGTPYGDVTRFQADVIKGAPIIWFFENCELTTTDLRRTLVQMKLAGWFDHCSGIMFGRSPTNTPVEDYTVDDVFRDLYEELKVPLMTDIDCGHVPPQLTLINGAYAEVKLNDGKGIVTQFFKE”, the “soluble on expression in E. coli” value was “not soluble”.
With “MSDPAGGKALRRDAAENRQRLLDAAATVFSARGLDVGVDEIARVAGVGIGTLYRRFPTKDALISELVRQVLEDFLTLAHEALSAPEGEGLEQVLYGSGAILASNRGCLSRMWNDDQTTVLRNEYRRILFELLAGAKQHGRIREDATEADLDLIFWSLRGVVATTRGVTDTGWRRILAVMIAGLRPGAERLDAAPLSAQDVAQIMENLWPR” the “soluble on expression in E. coli” value was “not soluble”.
In the case of “MVMATRVKNVGNWRIMPDATLAASYQAYKRCQNRRPDKAFTPHPAISAPMPDATLAASYQACKMCQNRVGRIRRSRRIRQLEHHHHHH”, the “soluble on expression in E. coli” value is reported as “not soluble”.
For “MEFIPPKRMLELIKHYSTTFKNWYSVMLGIYLHRERIKCTLRNGQTLYLTPNEAVLLAGLRIIELDCNTVKFSFNGREITLRGWRLSDPGDSFSDYWRINVKGKRVLDIGAGVGDSSIYFSTMGAKEVVAVEIDKKKIELMRENLRTNGINNVIVVDKGVGTVDNENFISWERLIKDYGPFDDAKIDCDGCERLISPFIKEIPELLIEWDSDYKDVVKNLSKNGYKIRVEHTLKNLGFIYAKRE”, the “soluble on expression in E. coli” value was “soluble”.
With “MYKLSGKAVEDFRGIYDYTLGKFGDEQADRYTDSLGTFLDTLSQMPEIGQDYDAIPEVKKIAFRFHTVYYVIRVDDILIARILHQLMEPRRHW” the “soluble on expression in E. coli” value was “soluble”.
In the case of “MGSDKIHHHHHHMRITEFYVSNFRSLSEVNLKDLGGFNIVVGYNGYGKTNLLSSIFLFVKNLSAGIEKRSIEDRNQEFILLWQGYDVSKPIMIGGKVEFSPEESNKIVGKNQKITLEIINKMRYNNKFVEWNLDTLYINGSPPGEDDLKVAKKLAEYASQAIEYVPIFDQTYFDETLKRMTEMNKSPINLRKYWYDFVNLVAATIPEVKGMEFWDGRRLVLNVYNLPIYIDLAASGFQRVILMLFIIWLSGNKILLIEEPEVNMHPTLQAKIMKLIKNWTDNNILQSFLTTHSPYIVEMAADSYVVMRRVNGNSTAITVKPTPDLRGTISLLNASLSNILFSRIIILTSELAEPSVIVNWLKRLNINVEDNGISIYKVSSDLELQHWLKLKNMLNLDVIFLGLCDKLDMSLKDYCVPLSREVENFYSKQALLEVLRRLGIYPDEKEIRDLGKEENLRWIINVLRKRGIEYEKLRMSIGELITDVDSIEIPKEIEILANKIKSLQATL”, the “soluble on expression in E. coli” value is reported as “not soluble”.
